Data: patent publication US20240376170A1 (BRIGHT PEAK THERAPEUTICS, published 2024)
Values belong to the binder of their own block, whether it stands above or below them. Bridges are numbered along the chain shown (N, C = ends). Primed or numbered codes have the meaning given here. [ ]: non-standard residue; d: D form. Ygp(4) = Tyr with amino-capped PEG8 (O-(8x polyethylene glycol-amino)-tyrosine); Yn3(4) = Tyr with azide-capped PEG9 (O-(9x polyethylene glycol-azido)-tyrosine); Ygp = O-(8x polyethylene glycol-amino)-tyrosine (Tyr, amino-capped PEG8); Yn3 = O-(9x polyethylene glycol-azido)-tyrosine (Tyr, azide-capped PEG9); PEG9′ = 9x polyethylene glycol; hSer = N[C@@H](CCO)C(=O)O; Nle = CCCC[C@H](N)C(=O)O

Target: T1, IL-2 receptor βγ complex (human, UniProt P14784 27-551; P31785 23-369)
T1 sequence (looked up) 1: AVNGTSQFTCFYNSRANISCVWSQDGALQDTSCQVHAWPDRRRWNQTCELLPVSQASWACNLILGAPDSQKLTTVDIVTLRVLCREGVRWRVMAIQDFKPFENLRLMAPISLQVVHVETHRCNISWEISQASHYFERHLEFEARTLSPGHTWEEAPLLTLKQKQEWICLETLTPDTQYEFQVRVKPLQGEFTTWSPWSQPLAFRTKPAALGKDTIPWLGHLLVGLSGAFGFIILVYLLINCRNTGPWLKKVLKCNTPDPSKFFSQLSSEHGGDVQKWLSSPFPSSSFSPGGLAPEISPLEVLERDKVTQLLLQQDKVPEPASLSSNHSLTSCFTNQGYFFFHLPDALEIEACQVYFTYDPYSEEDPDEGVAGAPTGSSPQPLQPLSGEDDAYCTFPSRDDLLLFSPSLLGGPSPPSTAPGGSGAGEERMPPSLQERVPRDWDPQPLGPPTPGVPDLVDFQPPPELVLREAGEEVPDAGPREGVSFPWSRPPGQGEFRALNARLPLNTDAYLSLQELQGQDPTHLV
T1 sequence (looked up) 2: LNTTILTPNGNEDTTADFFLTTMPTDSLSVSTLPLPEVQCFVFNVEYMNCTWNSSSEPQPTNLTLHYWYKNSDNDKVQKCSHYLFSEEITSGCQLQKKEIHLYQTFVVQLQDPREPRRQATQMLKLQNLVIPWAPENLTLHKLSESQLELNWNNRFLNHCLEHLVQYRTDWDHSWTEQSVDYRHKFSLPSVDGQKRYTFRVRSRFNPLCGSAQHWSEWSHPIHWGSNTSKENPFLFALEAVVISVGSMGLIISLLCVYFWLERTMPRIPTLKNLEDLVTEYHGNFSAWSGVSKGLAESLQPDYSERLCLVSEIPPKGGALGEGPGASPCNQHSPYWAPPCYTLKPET
Assay: cell-based or functional assay

B2: CMP-167 (ligand)
chain: APTSSSTKKTQLQLEHLLLDLQKILNGINNYKNPKLTR[Nle]L[hSer][Yn3]KF[Ygp][Nle]PKKATELKHLQCLEEELKPLEEVL[hSer]LAQSKNFHLRPRDLISNINVIVLELKGSETTF[hSer]CEYADETATIVEFLNRWITFSQSIISTLT
modifications: bridge N-23; not fully specified (bridges); ends not checked; also: sequence of the cleavable peptide in the bridge not given here
Average EC50, pSTAT5 Assay (T cells): 176 nM

B3: CMP-169 (ligand)
chain: APTSSSTKKTQLQLEHLLLDLQEILNGINNYKNPKLTR[Nle]L[hSer][Yn3(4)]KF[Ygp(4)][Nle]PKKATELKHLQCLEEELKPLEEVL[hSer]LAQSKNFHLRPRDLISNINVIVLELKGSETTF[hSer]CEYADETATIVEFLNRWITFSQSIISTLT
modifications: bridge 9-23; not fully specified (bridges); ends not checked; also: linker peptide sequence not given here
Average EC50, pSTAT5 Assay (T cells): 53.4 nM

B6: CMP-166, MMP2 cleaved molecule (ligand)
chain: APTSSSTKKTQLQLEHLLLDLQKILNGINNYKNPKLTR[Nle]L[hSer][Yn3]KF[Ygp][Nle]PKKATELKHLQCLEEELKPLEEVL[hSer]LAQSKNFHLRPRDLISNINVIVLELKGSETTF[hSer]CEYADETATIVEFLNRWITFSQSIISTLT
modifications: ends and bridges not checked; also: MMP2 cleaved, cleavage site and linker fragments on N-terminus and Lys23 side chain not given here
Average EC50, pSTAT5 Assay (T cells): 4.36 nM

B7: CMP-167, MMP2 cleaved molecule (ligand)
chain: APTSSSTKKTQLQLEHLLLDLQKILNGINNYKNPKLTR[Nle]L[hSer][Yn3]KF[Ygp][Nle]PKKATELKHLQCLEEELKPLEEVL[hSer]LAQSKNFHLRPRDLISNINVIVLELKGSETTF[hSer]CEYADETATIVEFLNRWITFSQSIISTLT
modifications: ends and bridges not checked; also: MMP2 cleaved, cleavage site and linker fragments on N-terminus and Lys23 side chain not given here
Average EC50, pSTAT5 Assay (T cells): 5.31 nM

Next, values leading:

Average EC50, pSTAT5 Assay (T cells): 0.883 nM
B1: CMP-301, MMP2 cleaved molecule (ligand)
chain: APTSSSTKKTQLQLEHLLLDLQEILNGINNYKNPKLTR[Nle]L[hSer][Yn3(4)]KF[Ygp(4)][Nle]PKKATELKHLQCLEEELKPLEEVL[hSer]LAQSKNFHLRPRDLISNINVIVLELKGSETTF[hSer]CEYADETATIVEFLNRWITFSQSIISTLT
modifications: not fully specified; ends and bridges not checked; also: cleaved by MMP2, product not given here, N-terminus linked to another sequence via PEG9, Glu23 side chain linked to another sequence

Average EC50, pSTAT5 Assay (T cells): 180 nM
B4: CMP-301 (ligand)
chain: GPLGLAG[PEG9′]APTSSSTKKTQLQLEHLLLDLQEILNGINNYKNPKLTR[Nle]L[hSer][Yn3(4)]KF[Ygp(4)][Nle]PKKATELKHLQCLEEELKPLEEVL[hSer]LAQSKNFHLRPRDLISNINVIVLELKGSETTF[hSer]CEYADETATIVEFLNRWITFSQSIISTLT
modifications: lactam N-31; ends not checked

Average EC50, pSTAT5 Assay (T cells): 5.39 nM
B5: CMP-169, MMP2 cleaved molecule (ligand)
chain: APTSSSTKKTQLQLEHLLLDLQEILNGINNYKNPKLTR[Nle]L[hSer][Yn3(4)]KF[Ygp(4)][Nle]PKKATELKHLQCLEEELKPLEEVL[hSer]LAQSKNFHLRPRDLISNINVIVLELKGSETTF[hSer]CEYADETATIVEFLNRWITFSQSIISTLT
modifications: not fully specified; ends and bridges not checked; also: cleaved by MMP2, product not given here, Lys9 side chain linked to another sequence via PEG4, Glu23 side chain linked to another sequence
